The record followed here is US11407811B2, “Fusion protein, preparation method therefor and use thereof” (JIANGSU RONGTAI BIOTECH CO., LTD., priority 2017, dated 2022).

Marks after values point to notes of the source that are not given here.

Data set [1] concerns human retinal vascular endothelial cell (HRCEC). The experiment in a line: MTT assay, proliferation of human retinal vascular endothelial cell (HRCEC). Format: cell-based. The settings on record: 48 hours. How it is done:
The activity of the integrin blocker polypeptide to inhibit proliferation of human retinal vascular endothelial cells was examined by MTT assay. HRCEC cells were cultured in a 5% CO2 incubator at 37° C. to a density of 90% or more, and then collected by trypsinization. The cells were resuspended in the culture liquid and counted under a microscope. The cell concentration was adjusted to 3.0×10^4 cells/mL. The cell suspension was inoculated into a 96-well plate at 100 μL per well and cultured in a 5% CO2 incubator at 37° C. overnight. […] After the cells were fully adhered, each dilution was added to a 96-well plate at 100 μL per well, respectively. […] 20 μL of 5 mg/mL MTT was added to each well of a 96-well plate, and incubation was continued for 4 hours. The medium was aspirated and 100 μL of DMSO was added per well for dissolution. The absorbance was measured at 570 nm with a microplate reader with a reference wavelength of 630 nm, and the proliferation inhibition (PI) was calculated. The formula was as follows: […]
where Ntest is the OD value of the test group and Ncontrol is the OD value of the blank control group.
The test was repeated 5 times independently. The results obtained from the test were calculated as mean±SD, and statistical t-test was performed. P<0.05 was considered as significant difference, and P<0.01 was considered as extremely significant difference.
(In general: Tetrazolium dyes change colour on reduction, which living cells bring about.)

Data set [2] deals with iris neovascularization in rabbits. The data set can be described thus: Iris neovascularization in rabbits. In kind it is in vivo, rabbit. The settings on record: 128 μg, intravitreal injection once every 5 days for 2 weeks. How it is done:
The argon ion laser at 577 nm was used to occlude the major branch vein of rabbit retina, and a success venous occlusion was confirmed by fundus fluorescein angiography (FFA).
9 eyes successful in modeling were randomly divided into […]. They were labeled as a negative control group, and fusion protein I, protein II, protein III, protein IV and protein V treatment groups, respectively, which were respectively given physiological saline, 128 μg of fusion protein I, 128 μg of protein II, 128 μg of protein III, 128 μg of protein IV and 128 μg of protein V via intravitreal injection once every 5 days for 2 weeks. The observation was performed with an optical and electron microscope on the third week.

In data set [3] the test system is retinal blood vessels in OIR mice. The experiment in a line: Retinal blood vessels in OIR mice. Format: in vivo. The settings on record: dose 64 μg, injected into the vitreous body on day 13, evaluated on day 17. From the text: Establishment of the OIR model: young mice and their mothers were exposed to 75% hyperoxic environment from day 7 to day 12 after birth of C57/B16 mice so that capillaries in the central retina rapidly disappeared. On day 12, the mice were returned to indoor air and the retinal blood vessels exposed to hyperoxia rapidly disappeared, which caused extensive abnormal neovascularization, and the central part of the retina remained largely avascular for a long time. After the blood vessels disappeared completely, the fusion protein (administration group, the doses of fusion protein I, protein II, protein III, protein IV, and protein V were all 64 μg) or physiological saline (negative group) was injected into the vitreous body on day 13. Retinal vessels were evaluated on day 17 (labeled as unclosed vessels, […] of Texas Red-labeled tomato lectin was injected into the left ventricle and cycled for 5 minutes).

B1: Protein II: IgG2-Fc linked to antiangiogenesis polypeptide EDSM-Y via a flexible linker; SEQ ID NO: 17 (protein)
chain: ERKCCVECPPCPAPPVAGPSVFLFPPKPKDTLMISRTPEVTCVVVDVSHEDPEVQFNWYVDGVEVHNAKTKPREEQFNSTFRVVSVLTVVHQDWLNGKEYKCKVSNKGLPAPIEKTISKTKGQPREPQVYTLPPSREEMTKNQVSLTCLVKGFYPSDISVEWESNGQPENNYKTTPPMLDSDGSFFLYSKLTVDKSRWQQGNVFSCSVMHEALHNHYTQKSLSLSPGKGGGGSGGGGSGGGGSFQPVLHLVALNSPLSGGMRGIRGADFQCFQQARAVGLAGTFRAGGGGRGD
In the case of B1, the “A570 nm/A630 nm” value in data set [1] (1 μg/mL) is recorded as 1.1122 ± 0.0385; in data set [1] (2 μg/mL), 1.0002 ± 0.0405; in data set [1] (4 μg/mL) it was 0.9287 ± 0.0288; in data set [1] (8 μg/mL) it was 0.8999 ± 0.0320; in data set [1] (16 μg/mL) it was 0.8225 ± 0.0291; in data set [1] (32 μg/mL), 0.7348 ± 0.0277. The “A570 nm/A630 nm” value was determined as 0.5748 ± 0.0314 in data set [1] (64 μg/mL), 0.3628 ± 0.0282 in data set [1] (128 μg/mL) and 0.1495 ± 0.0314 in data set [1] (256 μg/mL). The PI turned out to be 17.44% in data set [1] (1 μg/mL); 25.75% in data set [1] (2 μg/mL); 31.06% in data set [1] (4 μg/mL); 33.20% in data set [1] (8 μg/mL); 38.94% in data set [1] (16 μg/mL); 45.45% in data set [1] (32 μg/mL). In addition, the PI in data set [1] (64 μg/mL) is on record as 57.33%; in data set [1] (128 μg/mL), 73.07%; in data set [1] (256 μg/mL) it was 88.90%. Further, the “effect on iris neovascularization” value in data set [2] is “could inhibit neovascularization and regress the formed blood vessels”. Moreover, the “Area (mm^2) occupied by neovascular clusters” value in data set [3] was 0.146 ± 0.011* mm^2. The “Reduce (%)” value in data set [3] and in data set [3] (listed as protein II) was 30.81% in each case.
